Source: the DeepSol protein solubility set

Assay: soluble on expression in E. coli; label from the status in PepcDB or PDB records
For “MNIQNPVLKGFNPDPSIVRAGDDYYIATSTFEWFPGVQIHHSKDLVHWHLVAHPLSTTEFLDMKGNPDSGGIWAPDLSYADGKFWLIYTDVKVVDGMWKDCHNYLTTAEDIKGPWSKPILLNGAGFDASLFHDPSGKKYLVNMYWDQRVYHHNFYGIALQEYSVAEEKLIGKPEIIYKGTDIAYTEGPHLYYINDMYYLMTAEGGTTYQHSETIARSKTIHGPYEIQPDYPLLSAWKEVHNPLQKCGHASLVETQNGQWYLAHLTGRPLPAPAGFPSREREQHAFCPLGRETAIQKIEWQDGWPVVVGGQQGSLEVEAPDLPQQEWAPTYEERDDFDKDTLNINFQTLRIPFSEHLGSLTARPGFLRLYGRESLQSKFTQAHIARRWQSFNFDAGTSVEFSPNSFQQMAGLTCYYNTENWSSIHVTWNEEKGRIIDLVTADNGTFSMPLAGAEIPIPDEVKTVHFKVSVRGRIYQYAYSFDGETFHTLPIELPSWKLSDDYVRGGGFFTGAFVGINAIDITGTALPADFDYFTYKELD”, the “soluble on expression in E. coli” value was “soluble”. In the case of “MNITFKFNFMSYKHYFSPKHKPEITQAITITEPAIIFRLNKTYSTNLSQQEIYDITRSDWILGHRREKAEYGFAAFKGVVLQVYRIDRWDFSGKVTDVGRQRWFFEGKVATEMQDYINGNISHYFKKGDRSPTKYLNCLEHHHHHH”, the “soluble on expression in E. coli” value is reported as “not soluble”. For “MNITQAAEQAIRLWFNTPDPMQRLHMAKTIRTWIRQDKFAQVDQANMPNCVQQILNIIYDGLKPQPVQLPISYYAQLWYNLLDILRRFTFLPIISPYIHQVVQMFCPRENGPQDFRELICNLISLNWQKDPHMKHCANQVFQIFNCIIMGVKNEKLRTEFAQHLKFEKLVGTLSEYFNPQVHPGMINPAIFIIFRFIISKDTRLKDYFIWNNNPHDQPPPPTGLIIKLNAVMIGSYRLIAGQNPETLPQNPELAHLIQVIIRTFDLLGLLLHDSDAIDGFVRSDGVGAITTVVQYPNNDLIRAGCKLLLQVSDAKALAKTPLENILPFLLRLIEIHPDDEVIYSGTGFLSNVVAHKQHVKDIAIRSNAIFLLHTIISKYPRLDELTDAPKRNRVCEIICNCLRTLNNFLMMWIPTPNGETKTAGPNEKQQVCKFIEIDILKKLMSCLSCEGMDTPGLLELRSTILRSFILLLRTPFVPKDGVLNVIDENRKENLIGHICAAYSWVFRQPNNTRTQSTKQQLVERTISLLLVLMEQCGAEKEVAQYSYSIDCPLNLLNGNQVKPTFIHNVLVVCDKILEHCPTRADIWTIDRPMLEGLTNHRNSDIAKAANSLLSRFPEN”, the “soluble on expression in E. coli” value was “soluble”. For “MNIVITGGTGLIGRHLIPRLLELGHQITVVTRNPQKASSVLGPRVTLWQGLADQSNLNGVDAVINLAGEPIADKRWTHKQKERLCQSRWNITQKLVDLINASDTPPSVLISGSATGYYGDLGEVVVTEEEPPHNEFTHKLCARWEEIACRAQSDKTRVCLLRTGVVLAPDGGILGKMLPPFRLGLGGPIGSGRQYLAWIHIDDMVNGILWLLDNELRGPFNMVSPYPVRNEQFAHALGHALHRPAILRVPTTAIRLLMGESSVLVLGGQRALPKRLEEAGFAFRWYDLEEALADVVR”, the “soluble on expression in E. coli” value was “not soluble”. With “MNKAINIKKTAPLEVLHSELPYTQDPTALFHALCAGRSDCLLLESAEIDSKQNLKSLLLVDAAVRIVCEGHQVTYHALSANGQALLNIIHSNLTDRIPCKVEKAKLTLTFSTPCDTLDEDSRLREASSFDALRLVQHSFDLTDHGKFALFLGGLFAYDLVANFEPLGEAPADNQCPDYVFYVAETLMVIDHQRETCQLQATQFQPGDALHSQLKSRMREIRAQVNQKLPLPSAQSLSDVEVTTNISDAAFCDIVRDLKQYVVKGDVFQVVPSRRFRLPCPSPLAAYQRLKQSNPSPYMFYMQDERFTLFGASPESALKYEMHTNQVEIYPIAGTRRRGKRADGSIDFDLDSRIELELRTDKKENAEHMMLVDLARNDVARISQAGTRHVADLLQVDRYSHVMHLVSRVVGQLREDLDALHAYQACMNMGTLTGAPKIRAMQLIRDVEQARRGSYGGAVGYLTGEGDLDTCIVIRSAYVENGIAQVQAGAGVVYDSDPQAEADETRGKAQAVISAILYAHQGKE” the “soluble on expression in E. coli” value was “not soluble”. For “MNKAYYIGLMSGTSMDGVDAVLVDFAGEQPQLIGTHTETIPTHLLKGLQRLCLPGTDEINRLGRLDRSVGKLFALAVNNLLAKTKIAKDEIIAIGSHGQTVRHMPNLEVGFTLQIGDPNTIATETGIDVIADFRRKDIALGGQGAPLVPAFHQQTFAQVGKKRVILNIGGIANITYLPGNSEEVLGFDTGPGNTLIDAWVQQVKNESYDKNGAWAASGKTDPQLLAQLLSHPYFSLAYPKSTGRELFNQAWLEQQLSAFNQLNEEDIQSTLLDLTCHSIAQDILKLAQEGELFVCGGGAFNAELMQRLAALLPGYRIDTTSALGVDPKWAEGIAFAWLAMRYQLGLPANLPAVTGASREAILGGRFSAK”, the “soluble on expression in E. coli” value was “soluble”. In the case of “MNKDLRPIIWNDSEKKLVLIDQRKLPNELVYFECKNYKDVCFAIKDMVVRGAPAIGVAAAYGMALAELNGEDMEKAYLELKKTRPTAVNLFWALEKIIAAKNSGKSLLDEAKLIHEEDIELCRKIGEIGEVLIDDFDTILTHCNAGALATSAYGTALSVIRFAHYNGKKINVLSDETRPRLQGAKLTCFELNYENIPVKAICDNTAGFMMSKGLVDKIIVGADRILSDYHVFNKIGTYSLAILAKYHNIPFYVAAPYSTFDFESKLEDIVIEERSESEVTHIDNVRIVAEGVSAYNFAFDCTPPELITGIITEKEIIYPNKLEHHHHHH”, the “soluble on expression in E. coli” value is reported as “not soluble”. With “MNKELQPKVVFLMGPTASGKTALALELAEKHNCEIISVDSALIYRGMDIGSAKPSAEELARGPHRLIDIRDPSESYSAADFRADALSEIEQIISMGKTPLLVGGTMMYFKALLEGLSPLPSADEVIRADIQAEADANGWEALHDQLREIDPVSAERIHPNDPQRLSRALEVYRISGKSLTELTMTKSAPLPYNVVQFAIAPRERKVLHELIGQRFRIMLEQGFIDEVAQLKARDDLHLDLPSMRCVGYRQCWQYLDGEFDHDTMVEKAIAATRQLAKRQLTWLRSWPELNWLESGAEGNLVTLMRHCRLEHHHHHH” the “soluble on expression in E. coli” value was “soluble”. In the case of “MNKHSGIDFKQLNFLTKLNENHSGELWKGRWQGNDIVVKVLKVRDWSTRKSRDFNEECPRLRIFSHPNVLPVLGACQSPPAPHPTLITHWMPYGSLYNVLHEGTNFVVDQSQAVKFALDMARGMAFLHTLEPLIPRHALNSRSVMIDEDMTARISMADVKFSFQSPGRMYAPAWVAPEALQKKPEDTNRRSADMWSFAVLLWELVTREVPFADLSNMEIGMKVALEGLRPTIPPGISPHVSKLMKICMNEDPAKRPKFDMIVPILEKMQDK”, the “soluble on expression in E. coli” value is reported as “soluble”. In the case of “MNKKILIIDDNKMLGKLLAKKIQMTLDYEVDIAFGFAEAKELMNNDYFLAFVDLCLPDAPNGEVVDYVIEKKIPAIVLTASGDKATKEKFMDKDILDYIFKESETCIDEIISSIVKLNQYAKTKVIVAMSKLPERNEIKKILTQRQFNVLAAAHGEEAMSYLNDNNDVKLIIADVNMPVISGFELLTQVRERFSDDELGVILLGDHNDSFEANSFKNGVNEYLFKPLSKESFNCRLDRCLSYMDDKKFLSTYNVLDPVSGVKNYNALIDGIDDYFNEIATKDEEFAFAFLDIDNLQMINDEYGREVGDEVIKICANEIVNETKGRDLVGRYSAEKICILLKNISQERAIKIFSRIRVNIKKAGVLVNLDEVFFTASIGVVFGKSGDKIDSLADKASKILSQAKDNGKDRVEVCS”, the “soluble on expression in E. coli” value is reported as “soluble”. With “MNKPVSSIPQSKEELELAINSIFDKLMADYRTIPVELTRERNVEGNIKGTQVSVCDTVAYLIGWGKLVLKWHRLKAQGLPVEFPESGFKWNQLGLLAEHFHEQYADWKYEALLKELESTVNELLSLISSLSNYDLYETTWYDKWTLGRMIQFNTSSPMKNMRSKVRRFKKNKGLLLEHHHHHH” the “soluble on expression in E. coli” value was “soluble”. In the case of “MNKRVQAFLAKMQEKELDGIIINNLKNVYYLTGFWGSNGTVFISRDRQVLVTDSRYIIAAKQETSGFEIVADRDELAVIAGIVKDMGLTRIGFEDEISVSYYHRMQAAFAGLNLLPQTQFVEGLRMIK”, the “soluble on expression in E. coli” value is reported as “not soluble”. In the case of “MNLDLQKVLPAEAFETEQNEGDYIGKDGLLYCGVCRTKKQTRLPASDFTGGREIIVPCICKCKVEENKRKEEEEKKRQEMQRLERLKASSLMDAKLKAARLDGYQVDGDNQKIYNLAGNYVKRFDEMYEKRQGLLFWGTVGTGKSYTAACIANELLNQMIPVVMTSFVKILQNIQGNPDEEERIMAGLNAAKLLIIDDLGAERSTDYALEKVYNIIDSRYLSGKPLILTTNMTLKDMQESEDIRYRRIYDRIFEMCFPVRFAGRSWREKAASKRFDAMKNLMEE”, the “soluble on expression in E. coli” value is reported as “not soluble”. In the case of “MNLIFPLFFFALLVGSNAQFQQFCNYCGFIEVPKTWPVAQDSLRSACETLGMATTACKGIINSADLNSSYGKMYPYII”, the “soluble on expression in E. coli” value is reported as “not soluble”. In the case of “MNLITDETLVEPNLPTFEELTRVHDRKYLKSVRNPIKAAQIVEIPFVGCLPPCIIESKLLHPLRLQAGGTVLAANLALKHGWAINVGGGFHHASHSGGGGFCFYADITMAIFDLFDKKAIANAIVVDLDAHQVLEKTFERI”, the “soluble on expression in E. coli” value is reported as “not soluble”. With “MNLLERIKKLAKDRDVSIYQLEEEINIGRNTIYQWNKRTPSSDKLEAVANYFNVSVDYLLGRTENPNQAGAKPSDDLDDVLDNVMSFDGEPLDDHDREVIRAYLKGRFGK” the “soluble on expression in E. coli” value was “not soluble”. In the case of “MNLLIDNWIPVRPRNGGKVQIINLQSLYCSRDQWRLSLPRDDMELAALALLVCIGQIIAPAKDDVEFRHRIMNPLTEDEFQQLIAPWIDMFYLNHAEHPFMQTKGVKANDVTPMEKLLAGVSGATNCAFVNQPGQGEALCGGCTAIALFNQANQAPGFGGGFKSGLRGGTPVTTFVRGIDLRSTVLLNVLTLPRLQKQFPNESHTENQPTWIKPIKSNESIPASSIGFVRGLFWQPAHIELCDPIGIGKCSCCGQESNLRYTGFLKEKFTFTVNGLWPHPHSPCLVTVKKGEVEEKFLAFTTSAPSWTQISRVVVDKIIQNENGNRVAAVVNQFRNIAPQSPLELIMGGYRNNQASILERRHDVLMFNQGWQQYGNVINEIVTVGLGYKTALRKALYTFAEGFKNKDFKGAGVSVHETAERHFYRQSELLIPDVLANVNFSQADEVIADLRDKLHQLCEMLFNQSVAPYAHHPKLISTLALARATLYKHLRELKPQGGPSNG”, the “soluble on expression in E. coli” value is reported as “soluble”. In the case of “MNLNQLTGADLMAARTHIGLSISAVAKLTGINRNTLSQFEQEKASLSGSEKKRLAGCYEERGYHFDEPQTTDETVLATRYDDARERLVDAAYDVNMNGLGEAVLALADASHDLLSMLARPMDVAQEEVELDAVELPESYLEMHNVLQRHFLADKAGQMQGKVGFFKEDADERSAKLIAYMAQQYLTLLHAEMPEVVSLERDSLDDDSDNARVLDALANWTFYDALKEMTV”, the “soluble on expression in E. coli” value is reported as “not soluble”. In the case of “MNLRGILPFAHDTLRKVVRSGDYVIDATCGNGHDTLLLAELVGVNGHVLGFDIQQMAIDATKTRLENAGVASQVELVCASHALIPEYATKPVRAAIFNLGYLPGGDKEITTTADSTLESIGHLMQLLEVGGVIIIVIYHGHPAGKVEKDAVLTFCEAIPQQDFHVLSYNFINQKNDAPFVIIIEKRKPLEHHHHHH”, the “soluble on expression in E. coli” value is reported as “not soluble”. In the case of “MNLRPVIVGGGSAGMAAAIELARRGVPCVLFDEASRPGGVVYRGPLRAGVDPAYLGARYTRMLEKLRRDFSACAGHIDLRLNSRVVGGDGQRLMVLDEAERLHEVEYSHLLLATGCHERSVPFPGWTLPGVMLLGGLQLQIKSGVVKPLGDTLIAGSGPLLPLVACQLHAAGVRVAGVYEACAFGRMARESLALLNKPQLFLDGLSMLGYLKLNGIPLHYGWGVVEASGDGELTEVTVAPYDEEWRPDLENARPVKASTLAVGYGFIPRTQLSQQLGLEHGFSDDGYLRAECNVWQQSSQPHIHLAGDMAGIRGGEAAMIGGRIAALSILLQREAIAPAEAIERRESHLARLEAIKRFRAGVERYTQRGARQVELARADTVICRCEQVTRGDIERALEQGVQDIAGLKMRTRAGMGDCQGRMCIGYCSDRLRRATGRHDVGWLRPRFPIDPIPFSAFQNLGTEALEHHHHHH”, the “soluble on expression in E. coli” value is reported as “not soluble”.
